Measured values taken from patent EP2330122A1, “OFA/iLRP derived modified peptide” (Asklepios Kliniken Hamburg Gmbh, priority 2009, dated 2011).
Where no end group is shown, it is not given here.

What was measured:
[1] = test system: tumor cells from CLL patients; test: 51Chromium release assay on tumor cells from CLL patients; type: cell-based, human; settings: CTL induction with the peptide
Experimental: For the induction of OFA/iLR peptide-specific CTL obtained from patients with CLL CDS^+ T cells were separated from PBMC using immunomagnetic beads (MACS®, Miltenyi, Bergisch-Gladbach, Germany) and co-cultured with autologous irradiated OFA/iLR peptide-pulsed CD8^+/CD4^+-depleted PBMC. CTL were weekly restimulated with autologous irradiated peptide-pulsed CD8^+ICD4^+-depleted PBMC in the presence of IL-2 (20IU/ml; CellConcepts, Weisskirch, Germany) and IL-7 (10ng/ml; PeproTech, Hamburg, Germany). After at least four weekly restimulations, CTL reactivity was determined in a conventional 4h ^51Chromium release assay. Antibody blocking experiments were performed as previously described (Zeis M, Siegel S, Schmitz M et al. Induction of cytotoxic T lymphocytes against hematologic neoplasms by survivin RNA-transfected dendritic cells. J Immunol. 2003; 170, 5391-5397).
T cells specific for HLA-A* 02-restricted iLR-ASK-a2 peptide were tested in a standard ^51Chromium release assay on tumor cells from CLL patients.

[2] = molecular target: T1, HLA-A*0201 molecule on the TAP-deficient T2 cell line (human); test: T2 binding assay
T1 construct: whole, on cells; MHC class I on T2 cells, loaded with peptide from outside; also called HLA-A2-molecule; HLA-A*02-molecule

[3] = molecular target: T1, HLA-A*0201 molecule on the …; test: T2 binding assay, compared with the native peptide SEQ ID No. 2

## VAIENPADV [natural processed iLR66-74 peptide]
[1]
  cytotoxicity obtained by stimulation of patients PBMC with the peptide: no cytotoxicity

B1: native iLR66-74, naturally processed OFA/iLR peptide (VAIENPADV) (peptide)
peptide: VAIENPADV
notes: Synthetic 9-mer; also called naturally processed iLR peptide; naturally processed peptide
[2]
  binding result: binds

B2: iLR-ASK-A2 66-74 modified OFA/iLR peptide (VLIENPADV) (peptide)
peptide: VLIENPADV
notes: It is OFA/iLRP AA66-AA74 with the second residue changed from Ala to Leu; also called modified peptide
[3]
  binding result: binds
